Test: soluble on expression in E. coli; label from the status in PepcDB or PDB records

Sequence	soluble on expression in E. coli
MGSDKIHHHHHHMYKHSIIPKPVSEYDLRLLRIFISVVEHGGFSSAANALGITRSTISVHMSNLETRMKLKLCLRGRGGFSLTEDGQAVYQAVLDLFATMDDFSLLIDSLGSELSGELIILCADQLDESKQHKMAQVIKKINDASPNLHLVLDGDSISNIEKALLKDKAHIALFPSYQQIEGLQYQPLFSESIYLCCGKQHPFFNQVDTAISEEILGQAAAIHPGINIDLAGKQQLEKLNLSAKSYQFDTRKAMILSGCYIGFMQQSFIQAELNRGEIRIIKPNSHHYQFRLSLVSKKTPREVKKVELLTNVFSQVFEL	not soluble
MSSQKVFGITGPVSTVGATAAENKLNDSLIQELKKEGSFETEQETANRVQVLKILQELAQRFVYEVSKKKNMSDGMARDAGGKIFTYGSYRLGVHGPGSDIDTLVVVPKHVTREDFFTVFDSLLRERKELDEIAPVPDAFVPIIKIKFSGISIDLICARLDQPQVPLSLTLSDKNLLRNLDEKDLRALNGTRVTDEILELVPKPNVFRIALRAIKLWAQRRAVYANIFGFPGGVAWAMLVARICQLYPNACSAVILNRFFIILSEWNWPQPVILKPIEDGPLQVRVWNPKIYAQDRSHRMPVITPAYPSMCATHNITESTKKVILQEFVRGVQITNDIFSNKKSWANLFEKNDFFFRYKFYLEITAYTRGSDEQHLKWSGLVESKVRLLVMKLEVLAGIKIAHPFTKPFESSYCCPTEDDYEMIQDKYGSHKTETALNALKLVTDENKEEESIKDAPKAYLSTMYIGLDFNIENKKEKVDIHIPCTEFVNLCRSFNEDYGDHKVFNLALRFVKGYDLPDEVFDENEKRPSKKSKRKNLLEHHHHHH	soluble
MEPKLSKDTIIAAAFSLLEKSPTLEQLSMRKVAKQLGVQAPAIYWYFKNKQALLQSMAEAIEEHFQEPALCGEWYSDLLAFMENYYDLYQQFPCAVAIEIQTVPAYPQRLRHLNQMMGILREAGFSPEMTHLAVTSLQHLLFGMIMDATEEKQLVSQVLNGDDYLKEQVLHMKQYVSDNELTYMEESIQFRHSIHQKSAFIQAVKTYLDGLQADNTSSSK	soluble
MGHHHHHHSHVGFDTGFMQFFRVREKSMTMAELLIGSRKTYGLNLIGGVRRDILKEQRLQTLKLVREMRADVSELVEMLLATPNMEQRTQGIGILDRQIARDLRFDHPYADYGNIPKTLFTFTGGDVFSRVMVRVKETFDSLAMLEFALDNMPDTPLLTEGFSYKPHAFALGFVEAPRGEDVHWSMLGDNQKLFRWRCRAATYANWPVLRYMLRGNTVSDAPLIIGSLDPCYSCTDR	not soluble
MGSDKIHHHHHHMVEPMTPRFKYTKASQENIQQLGNILEQCFVMSFGDSEIYVKGIGLENFRVIYREQKVAGGLAILPMGQWWGGQRVPMAGIAAVGIAPEYRGDGAAIALIQHTLQEISEQDIPISVLYPATQRLYRKAGYEQAGSSCVWEIPTDSIQIQHASLPLEPVVLKNNPIFHELYQQQAQLTHGYLDRHPAIWQGLNRTLDTETLYSYLIGDKDKPQGYIIFTQERTRDGSILRIRDWVTLSNPAVQSFWTFIANHRSQIDKVTWKSSVIDALTLLLPEQSATIRSQDRWMLRIVNVCKALEARGYPLGVEAELHLEVQDDLLATNQGKFILSVANGKSEVTKGGKGELQLDIKGLASLYTSLFTPRQLQLTGKLQATETALLKATQIFAGESPWMIDFF	not soluble
MSLGTFRFGTSATPEGKTLLVDSKGLILDGKHIIPVMGEIHYSRVPESEWRREIRKMKAGGINIISTYIFWIHHEPEEGKWNWSGNHNLRRFVRICAEENVMLVLRLGPFCHGEVYQGGIPSWVHEKAGQNPKYKIRARTPGFLEDCTELYNTIFAQVNGLLWKDGGPVVGVQIENESRGPWDYLEALKNIAVKAGFDVPFYTRTGWPALRGKEVFGQLLPLYGDYADGFWDRKLEDMPGSYADAFIMRDKRMSSAIATETFSKEELSEDSPSLSSKLSYPYFTCELGGGMMPAYHRRININGKELKPLVICKLGSGSNLPGYYMYHGGTNPYNPLHTMGETQSSPGTNHNDLPHMTYDFQAPLGEVGQVFETPFHEGRFIHQMLTDWGSELLQMNVDSLSRHYARRGAFEFYNDYVRIKNESGTSHVTFKDYRTEGATIDWTTVEPFCKVDGLIYFIEIRGKKPQISVDGKVYTCKLNKQQKAGKLNVCVLSYEKAKTAYKIDGKLLYAKNGGILYKSDSCIVEEVWTKSPVIAATVTEVKKADAPRVVPMGRQAVAAQPVEEDFAKAAVYTINYDTSGINNYDNLFLRINYRGDVARVYADGRLVADNFWNGKEMWVRMADLVGKKVELKILPLRKDAPVYFQKEQKAMIEATKGDYMLGLDSVEVIERHTLEFNDTEGHHHHHH	soluble
MSLDFKAIQALTANDMAKVNETIHAQLNSDVSLINQLGFYIISGGGKRLRPLLAVLSAKALGYQGSHHTTAAAFIEFIHTATLLHDDVVDESDLRRGKATANAAFGNAASVLVGDFIYTRSFQMMTELGSMKILKLMSDAVNVIAEGEVQQLMNCNDPDTTEASYMQVIYSKTARLFEAATQIGAILCDASPEVELAMQNYGKYLGTAFQLIDDVMDYTSDGDEMGKNVGDDLAEGKPTLPLLYAMQHGNPEQAAMIREAIEKANGMSRLNEILAAMEQTGSLQYTIEKALHEADKAIAELAILPESEYKQALITLAHMAVNRSKEGHHHHHH	soluble
PISFGLSVRKSLAKGFSVETGLTYTLLSSDAKFADSDQKTEQKLHYLGIPLKANWNFLDKKLFTLYVSGGGMIEKCVYGKLGTEKETVKPLQFSVSGAVGAQFNATKRVGIYVEPGVAYFFDDGSDVQTIRKENPFNFNIQAGIRLTY	not soluble
MKKPIHSHRAATLYHFAFCLHNLRRSPNSPFTVRNRDEQKDEKPYENKGKINKFFLDLTYFQLPYPVSERAPLRLRAKIETREKINFKIRASSSPAVLVNFPFPRHSLLVSLSPAHETNNAVDGEALHPRAQRA	not soluble
MAKGIMLHEVGEQVDQYLLIKSSTKGIASNGKPFLTLMLQDQSGDIEAKLWDAKQSDEVTYAPQTIVKVVGDVHHYRGRTQLKLRNIRPVSEQENVNIDDFLETAPIPKNEMMDTITQYIFEMKNPNIQRITRFLVKKHEAEFMDYPAATKNHHEFVSGLAYHVVSMLNLAKAIADLYPSLDRDLLYAGVILHDLGKVKELSGPVSTSYTVEGNLLGHISIMVTELSKAAEELQIDSEEVLILQHLILSHHGKAEWGSPKPPMVKEAEILHYIDNLDAKMNMMDRALERVKPGEYTERVFALENRSFYKPTFHK	not soluble
MSVDETITFSLAVKNTGNREGQEIVQLYIRDIKSSLPRPVKELKRFKKVNLMPGEEKIVSLSIDKEALSFFDAERHEWICEPGKFEAIIAASAMDIKDVLKFELKLEHHHHHH	not soluble
MGPLCAVCESPTAFTLHFGGRCCKACAAFFRRTIALDLKYECAADDPCEIHFKFPGMRLVCRECRLRKCYSAGMRSELVRSKRENFACTRRKDSRNNSDAAPNSNSPSTRQSSSPEEMDDWSFQMFEEKPKIEDLPLTPSISHPPLPTQLMPEESSRTSSFDGGYCSSYPSSSAATHPSPPGMLYSIENNSILQYYHSMETGLCSKRRIMYTNTGMDFILDTHANLQCPFTVNDLRPHDYRNFRGMLRHDFVMLFDYATRFPEFNSFTSHEKNMFYRQIVAVDFILSSAYYTAKLGQAHRQMVLTNGEYLNMDPLPMSGNEIDARRYFDCDEDFSKYRALMPMHIAIWEESIVPFSKLNVTFEEFCLLKALTVWQATYFKLTENGREKCRRQRNIIIGFLSKMCHSPGGGGEHRVGELLMSMNYLRESAQKLTTSYVMLTVFNVLNCDSMLHEMLNFQY	not soluble
MGSDKIHHHHHHMQKLGIFIYSLGSGGAERVVATLLPILSLKFEVHLILMNDKISYEIPECQIHFLECSKPSENPILKFLKLPFLALKYKKLCRNLGIDTEFVFLNRPNYIALMARMFGNKTRLVINECTTPSVMYMKNNFNSLVNKFLISLLYPKADLILPNSKGNLEDLVQNFSISPKKCEILYNAIDLENIGQKALEDIALKDKFILSVGRLDKGKNHALLIRAYARLKTDLKLVILGEGVLKDELLALIKELNLEEKVLLLGFDNNPYKYMAKCEFFAFASVFEGFSNVLIESLACSCAVVCTDHKSGARELFGDDEFGLLVEVDNENSMFQGLKTMLEDDKLRKAYKNKAKTRAKAFDKVKIARDALKYLLG	not soluble
